Measured values taken from patent US20180222961A1 (IMMATICS BIOTECHNOLOGIES, published 2018).

B1: IPTYGRTF (peptide)
peptide: IPTYGRTF
B2: NPIGDTGVKF (peptide)
peptide: NPIGDTGVKF
B3: SPALHIGSV (peptide)
peptide: SPALHIGSV
B4: SPAMTTPSL (peptide)
peptide: SPAMTTPSL
B5: PGGTRQSL (peptide)
peptide: PGGTRQSL
B6: FPFNPLDF (peptide)
peptide: FPFNPLDF
B7: AIKVIPTVFK (peptide)
peptide: AIKVIPTVFK
B8: RPRSPAGQVAA (peptide)
peptide: RPRSPAGQVAA
B9: RLFSWLVNR (peptide)
peptide: RLFSWLVNR
B10: SPNEFYFTV (peptide)
peptide: SPNEFYFTV
B11: TPTKETVSL (peptide)
peptide: TPTKETVSL
B12: KTLELRVAY (peptide)
peptide: KTLELRVAY
B13: APSTPRITTF (peptide)
peptide: APSTPRITTF
B14: RLKGDAWVYK (peptide)
peptide: RLKGDAWVYK
B15: IPRNPPPTLL (peptide)
peptide: IPRNPPPTLL
B16: NPSSTTTEF (peptide)
peptide: NPSSTTTEF
B17: RVFTSSIKTK (peptide)
peptide: RVFTSSIKTK
B18: RSRLNPLVQR (peptide)
peptide: RSRLNPLVQR
B19: RTEEVLLTFK (peptide)
peptide: RTEEVLLTFK
B20: SPMHDRWTF (peptide)
peptide: SPMHDRWTF
B21: RPRSPAGQVAAA (peptide)
peptide: RPRSPAGQVAAA
B22: TPLATTQRFTY (peptide)
peptide: TPLATTQRFTY
B23: SPSPVPTTL (peptide)
peptide: SPSPVPTTL
B24: LPWDTSTTLF (peptide)
peptide: LPWDTSTTLF
B25: TAKTPDATF (peptide)
peptide: TAKTPDATF
B26: HTFGLFYQR (peptide)
peptide: HTFGLFYQR
B27: NPDLRRNVL (peptide)
peptide: NPDLRRNVL
B28: TPSVVTEGF (peptide)
peptide: TPSVVTEGF
B29: SPLVTSHIM (peptide)
peptide: SPLVTSHIM
B30: TPLATTQRF (peptide)
peptide: TPLATTQRF
B31: SPGAQRTFFQL (peptide)
peptide: SPGAQRTFFQL
B32: RPRSPAGQVA (peptide)
peptide: RPRSPAGQVA
B33: SPSVSSNTY (peptide)
peptide: SPSVSSNTY
B34: APLKLSRTPA (peptide)
peptide: APLKLSRTPA
B35: ISYSGQFLVK (peptide)
peptide: ISYSGQFLVK
B36: SSSSATISK (peptide)
peptide: SSSSATISK
B37: SPTHVTQSL (peptide)
peptide: SPTHVTQSL
B38: VLADSVTTK (peptide)
peptide: VLADSVTTK
B39: AVFNPRFYRTY (peptide)
peptide: AVFNPRFYRTY
B40: KTFTIKRFLAK (peptide)
peptide: KTFTIKRFLAK
B41: SAAPPSYFR (peptide)
peptide: SAAPPSYFR
B42: GTNTVILEY (peptide)
peptide: GTNTVILEY
B43: AAFVPLLLK (peptide)
peptide: AAFVPLLLK
B44: LYVDGFTHW (peptide)
peptide: LYVDGFTHW
B45: QIHDHVNPK (peptide)
peptide: QIHDHVNPK
B46: YPGLRGSPM (peptide)
peptide: YPGLRGSPM
B47: SPVPVTSLF (peptide)
peptide: SPVPVTSLF
B48: SPAPLKLSRTPA (peptide)
peptide: SPAPLKLSRTPA
B49: LPEQTPLAF (peptide)
peptide: LPEQTPLAF
B50: SPSTIKLTM (peptide)
peptide: SPSTIKLTM
B51: MPSLSEAMTSF (peptide)
peptide: MPSLSEAMTSF
B52: SVLTSSLVK (peptide)
peptide: SVLTSSLVK
B53: GTYAHTVNR (peptide)
peptide: GTYAHTVNR
B54: GAYAHTVNR (peptide)
peptide: GAYAHTVNR
B55: NVLTSTPAF (peptide)
peptide: NVLTSTPAF
B56: VTADHSHVF (peptide)
peptide: VTADHSHVF
B57: RLFTSPIMTK (peptide)
peptide: RLFTSPIMTK
B58: MPLTTGSQGM (peptide)
peptide: MPLTTGSQGM
B59: VTDLISPRK (peptide)
peptide: VTDLISPRK
B60: VPTPVFPTM (peptide)
peptide: VPTPVFPTM
B61: KPIESTLVA (peptide)
peptide: KPIESTLVA
B62: AAASPLLLL (peptide)
peptide: AAASPLLLL
B63: RPRALRDLRIL (peptide)
peptide: RPRALRDLRIL
B64: GPFPLVYVL (peptide)
peptide: GPFPLVYVL
B65: SPAETSTNM (peptide)
peptide: SPAETSTNM
B66: MPNSAIPFSM (peptide)
peptide: MPNSAIPFSM
B67: RLQEWKALK (peptide)
peptide: RLQEWKALK

How the values were obtained:
HLA-B*07:02 = target: T1, HLA-B*07:02 (human); assay: UV-exchange b2m ELISA; exchange-yield grade
T1 construct: also called peptide-receptive MHC molecules
Description: (§1) Candidate peptides for T cell based therapies according to the present invention were further tested for their MHC binding capacity (affinity). The individual peptide-MHC complexes were produced by UV-ligand exchange, where a UV-sensitive peptide is cleaved upon UV-irradiation, and exchanged with the peptide of interest as analyzed. Only peptide candidates that can effectively bind and stabilize the peptide-receptive MHC molecules prevent dissociation of the MHC complexes. To determine the yield of the exchange reaction, an ELISA was performed based on the detection of the light chain (β2m) of stabilized MHC complexes. The assay was performed as generally described in Rodenko et al. (Rodenko et al., 2006).
(§2) 96 well MAXISorp plates (NUNC) were coated over night with 2 ug/ml streptavidin in PBS at room temperature, washed 4× and blocked for 1 h at 37° C. in 2% BSA containing blocking buffer. Refolded HLA-A*02:01/MLA-001 monomers served as standards, covering the range of 15-500 ng/ml. Peptide-MHC monomers of the UV-exchange reaction were diluted 100-fold in blocking buffer. Samples were incubated for 1 h at 37° C., washed four times, incubated with 2 ug/ml HRP conjugated anti-β2m for 1 h at 37° C., washed again and detected with TMB solution that is stopped with […]. Absorption was measured at 450 nm. Candidate peptides that show a high exchange yield (preferably higher than 50%, most preferred higher than 75%) are generally preferred for a generation and production of antibodies or fragments thereof, and/or T cell receptors or fragments thereof, as they show sufficient avidity to the MHC molecules and prevent dissociation of the MHC complexes.

HLA-A*03:01 = target: T2, HLA-A*03:01 (human); assay: UV-exchange b2m ELISA; exchange-yield grade
T2 construct: also called peptide-receptive MHC molecules
Description: as §1, §2

Row | Binder | peptide exchange yield (HLA-B*07:02) [%] | peptide exchange yield (HLA-A*03:01) [%]
1 | B1 | 50 to 75 | 
2 | B2 | 50 to 75 | 
3 | B3 | 50 to 75 | 
4 | B4 | 50 to 75 | 
5 | B5 | 10 to 20 | 
6 | B6 | 20 to 50 | 
7 | B7 |  | 20 to 50
8 | B8 | 50 to 75 | 
9 | B9 |  | 50 to 75
10 | B10 | 50 to 75 | 
11 | B11 | 50 to 75 | 
12 | B12 |  | 20 to 50
13 | B13 | 50 to 75 | 
14 | B14 |  | 50 to 75
15 | B15 | 50 to 75 | 
16 | B16 | 50 to 75 | 
17 | B17 |  | 20 to 50
18 | B18 |  | 20 to 50
19 | B19 |  | 20 to 50
20 | B20 | 50 to 75 | 
21 | B21 | 50 to 75 | 
22 | B22 | 20 to 50 | 
23 | B23 | 50 to 75 | 

Row | Binder | peptide exchange yield (HLA-B*07:02) [%] | peptide exchange yield (HLA-A*03:01) [%]
24 | B24 | 50 to 75 | 
25 | B25 | 20 to 50 | 
26 | B26 |  | 20 to 50
27 | B27 | 50 to 75 | 
28 | B28 | 20 to 50 | 
29 | B29 | 50 to 75 | 
30 | B30 | 20 to 50 | 
31 | B31 | 50 to 75 | 
32 | B32 | 50 to 75 | 
33 | B33 | 20 to 50 | 
34 | B34 | 50 to 75 | 
35 | B35 |  | 50 to 75
36 | B36 |  | 20 to 50
37 | B37 | 50 to 75 | 
38 | B38 |  | 20 to 50
39 | B39 |  | 20 to 50
40 | B40 |  | 20 to 50
41 | B41 |  | 20 to 50
42 | B42 |  | 50 to 75
43 | B43 |  | 20 to 50
44 | B44 | 20 to 50 | 
45 | B45 |  | 20 to 50
46 | B46 | 50 to 75 | 

Row | Binder | peptide exchange yield (HLA-B*07:02) [%] | peptide exchange yield (HLA-A*03:01) [%]
47 | B47 | 50 to 75 | 
48 | B48 | 20 to 50 | 
49 | B49 | 20 to 50 | 
50 | B50 | 50 to 75 | 
51 | B51 | 50 to 75 | 
52 | B52 |  | 20 to 50
53 | B53 |  | 50 to 75
54 | B54 |  | 50 to 75
55 | B55 | 20 to 50 | 
56 | B56 |  | 10 to 20
57 | B57 |  | 50 to 75
58 | B58 | 20 to 50 | 
59 | B59 |  | 20 to 50
60 | B60 | 20 to 50 | 
61 | B61 | 50 to 75 | 
62 | B62 | 20 to 50 | 
63 | B63 | 50 to 75 | 
64 | B64 | 50 to 75 | 
65 | B65 | 50 to 75 | 
66 | B66 | 50 to 75 | 
67 | B67 |  | 50 to 75
